The text below walks through data of patent US20240109955A1.

What all share (test): cell-based or functional assay
Test [1] addresses SARS-CoV-2 Omicron variant BQ.1.1 spike protein (SARS-CoV-2).
Test [2] deals with SARS-CoV-2 Omicron variant BQ.1 spike protein (SARS-CoV-2).
Test [3] concerns the target SARS-CoV-2 Omicron variant BA.4/5 spike protein (SARS-CoV-2).
The target of test [4] is SARS-CoV-2 Omicron variant XBB spike protein (SARS-CoV-2).
For test [5], the target named is SARS-CoV-2 Omicron variant BA.2.75.2 spike protein (SARS-CoV-2).
Test [6] concerns the target SARS-CoV-2 Omicron variant B.1.1.529 spike protein (SARS-CoV-2).
Test [7] concerns the target SARS-CoV-2 Delta variant spike protein (SARS-CoV-2).

B1: MX1028 (bispecific antibody)
chain 1: EIVMTQSPAILSVSPGERATLSCRASQSVAINLAWYQQKPGQAPRLLIYAASSRATGIPGRFSGSGSETNFTLTISSLQSGDFAVYYCQQYITWPPSYTFGQGTKLEIKGGSSGDTVMTQSPLSLPVTPGEPASISCRSSQSLLNSNGYNYLDWYVQKPGQSPQLLIYLGSNRASGVPDRFSGSGSGTDFTLKISRVEAEDVGVYYCMQPLQTPLFTFGPGTKVEIKGGGGSGGSGSGGGGSASGSGQVTLRESGPALVKPTQTLTLTCTFSGFSLSTRGVCVSWIRQPPGKALEWLAFIDWDDDKYYNTSLKTRLTISKDTSKNQVVLTMTNVHPVDTATYYCARISSHHGSSWCTTFDYWGQGALVTVSAGGSSGEVQLVESGGALIQPGGSLRLSCAASGIIVSANYMSWVRQAPGKGLEWVSVIYSGGSTFYADSVKGRFTISRDNSKNTLYLEMNSLRAEDTAVYYCARDAPILGVSDWGQGTLVTVSSASGGSGDKTHTCPPCPAPELLGGPSVFLFPPKPKDTLMISRTPEVTCVVVDVSHEDPEVKFNWYVDGVEVHNAKTKPREEQYNSYVVSVLTVLHQDWLNGKEYKCKVSNKALPAPIEKTISKAKGQPREPQVYTLPPCRDELTKNQVSLWCLVKGFYPSDIAVEWESNGQPENNYKTTPPVLDSDGSFFKKLTVDKSRWQQGNVFSCSVLHEALHSHYTQKSLSLSPG
chain 2: DTVMTQSPLSLPVTPGEPASISCRSSQSLLNSNGYNYLDWYVQKPGQSPQLLIYLGSNRASGVPDRFSGSGSGTDFTLKISRVEAEDVGVYYCMQPLQTPLFTFGPGTKVEIKGGSSGEIVMTQSPAILSVSPGERATLSCRASQSVAINLAWYQQKPGQAPRLLIYAASSRATGIPGRFSGSGSETNFTLTISSLQSGDFAVYYCQQYITWPPSYTFGQGTKLEIKGGGGSGGSGSGGGGSASGSGEVQLVESGGALIQPGGSLRLSCAASGIIVSANYMSWVRQAPGKGLEWVSVIYSGGSTFYADSVKGRFTISRDNSKNTLYLEMNSLRAEDTAVYYCARDAPILGVSDWGQGTLVTVSSGGSSGQVTLRESGPALVKPTQTLTLTCTFSGFSLSTRGVCVSWIRQPPGKALEWLAFIDWDDDKYYNTSLKTRLTISKDTSKNQVVLTMTNVHPVDTATYYCARISSHHGSSWCTTFDYWGQGALVTVSAASGGSGDKTHTCPPCPAPELLGGPSVFLFPPKPKDTLMISRTPEVTCVVVDVSHEDPEVKFNWYVDGVEVHNAKTKPREEQYNSYVVSVLTVLHQDWLNGKEYKCKVSNKALPAPIEKTISKAKGQPREPQVCTLPPSRDELTKNQVSLSCAVKGFYPSDIAVEWESNGQPENNYKTTPPVLDSDGSFFLVSKLTVDKSRWQQGNVFSCSVLHEALHSHYTQKSLSLSPG
Take B1: the IC50, pseudovirus neutralization in test [1] is 0.0042 µg/mL; in test [2], 0.0105 µg/mL; in test [3], 0.00181 µg/mL; in test [4] it was 0.00677 µg/mL; in test [5], 0.00243 µg/mL. Besides, the IC80, pseudovirus neutralization in test [1] was found to be 0.0144 µg/mL; in test [2] it was 0.0255 µg/mL; in test [3], 0.00373 µg/mL; in test [4], 0.0161 µg/mL; in test [5], 0.0074 µg/mL.

B2: MX1041 (bispecific antibody)
chain: QTVVTQEPSFSVSPGGTVTLTCGLSSGSVSTAYFPSWYQQTPGQAPRTLIYGTNTRSSGVPDRFSGSILGNKAALTITGAQADDESDYYCVLYMGRGIVVFGGGTKLTVLGGSSGEIVLTQSPGTLSLSPGETATLSCRASQSFSSDLAWYQQKPGQAPRLLIYGASSRATGIPDRFSGSGSGTDFTLTISRLEPADFAVYYCQQYGSSPPVTFGGGTKVEIKGGGGSGGSGSGGGGSASGSGEVQLVESGGGLIQPGGSLRLSCAASGVIVSYNYMNWVRQAPGKGLEWVSVIYSGGSTFYADSVRGRFTISRDNSKNTLYLQMNSLRAEDTAVYYCARDLGPAGAFDIWGLGTMVTVSSGGSSGQVQLVESGGGVVQPGRSLRLSCAASGFTLSSYGMHWVRQAPGKGLEWVAVISYDGSNKYYVDSVKGRFTISRDNSKNTLYLQMNSLRAEDTAVYYCRWAYWELLPDYYYGMDVWGQGTTVTVSSASGGSGDKTHTCPPCPAPELLGGPSVFLFPPKPKDTLMISRTPEVTCVVVDVSHEDPEVKFNWYVDGVEVHNAKTKPREEQYNSYVVSVLTVLHQDWLNGKEYKCKVSNKALPAPIEKTISKAKGQPREPQVYTLPPSRDELTKNQVSLTCLVKGFYPSDIAVEWESNGQPENNYKTTPPVLDSDGSFFKKLTVDKSRWQQGNVFSCSVLHEALHSHYTQKSLSLSPG
For the molecule B2, the figures for the IC50, pseudovirus neutralization in test [6] and in test [7] were 0.00414 µg/mL and 0.0291 µg/mL, respectively. Moreover, the IC80, pseudovirus neutralization was 0.00881 µg/mL in test [6] and 0.0485 µg/mL in test [7].

B3: A46 + B8 (protein)
VH 1: QVQLVESGGGVVQPGRSLRLSCAASGFTLSSYGMHWVRQAPGKGLEWVAVISYDGSNKYYVDSVKGRFTISRDNSKNTLYLQMNSLRAEDTAVYYCRWAYWELLPDYYYGMDVWGQGTTVTVSS
VL 1: QTVVTQEPSFSVSPGGTVTLTCGLSSGSVSTAYFPSWYQQTPGQAPRTLIYGTNTRSSGVPDRFSGSILGNKAALTITGAQADDESDYYCVLYMGRGIVVFGGGTKLTVL
VH 2: EVQLVESGGALIQPGGSLRLSCAASGIIVSANYMSWVRQAPGKGLEWVSVIYSGGSTFYADSVKGRFTISRDNSKNTLYLEMNSLRAEDTAVYYCARDAPILGVSDWGQGTLVTVSS
VL 2: EIVMTQSPAILSVSPGERATLSCRASQSVAINLAWYQQKPGQAPRLLIYAASSRATGIPGRFSGSGSETNFTLTISSLQSGDFAVYYCQQYITWPPSYTFGQGTKLEIK
For B3, the IC50, pseudovirus neutralization turned out to be 0.0145 µg/mL in test [1], 0.0186 µg/mL in test [2] and 0.0186 µg/mL in test [4]. Moreover, the results for the IC80, pseudovirus neutralization in test [1], in test [2] and in test [4] were 0.0273 µg/mL, 0.0493 µg/mL and 0.0481 µg/mL, respectively.

B4: E8 + B8 (protein)
VH 1: QVTLRESGPALVKPTQTLTLTCTFSGFSLSTRGVCVSWIRQPPGKALEWLAFIDWDDDKYYNTSLKTRLTISKDTSKNQVVLTMTNVHPVDTATYYCARISSHHGSSWCTTFDYWGQGALVTVSA
VL 1: DTVMTQSPLSLPVTPGEPASISCRSSQSLLNSNGYNYLDWYVQKPGQSPQLLIYLGSNRASGVPDRFSGSGSGTDFTLKISRVEAEDVGVYYCMQPLQTPLFTFGPGTKVEIK
VH 2: EVQLVESGGALIQPGGSLRLSCAASGIIVSANYMSWVRQAPGKGLEWVSVIYSGGSTFYADSVKGRFTISRDNSKNTLYLEMNSLRAEDTAVYYCARDAPILGVSDWGQGTLVTVSS
VL 2: EIVMTQSPAILSVSPGERATLSCRASQSVAINLAWYQQKPGQAPRLLIYAASSRATGIPGRFSGSGSETNFTLTISSLQSGDFAVYYCQQYITWPPSYTFGQGTKLEIK
With B4, the results for the IC50, pseudovirus neutralization in test [1], in test [2] and in test [4] were 0.00955 µg/mL, 0.011 µg/mL and 0.00996 µg/mL, respectively. Further, the figures for the IC80, pseudovirus neutralization in test [1], in test [2] and in test [4] were 0.0132 µg/mL, 0.0305 µg/mL and 0.0181 µg/mL, respectively.

B5: MX1027 (bispecific antibody)
chain 1: EIVMTQSPAILSVSPGERATLSCRASQSVAINLAWYQQKPGQAPRLLIYAASSRATGIPGRFSGSGSETNFTLTISSLQSGDFAVYYCQQYITWPPSYTFGQGTKLEIKGGSSGQTVVTQEPSFSVSPGGTVTLTCGLSSGSVSTAYFPSWYQQTPGQAPRTLIYGTNTRSSGVPDRFSGSILGNKAALTITGAQADDESDYYCVLYMGRGIVVFGGGTKLTVLGGGGSGGSGSGGGGSASGSGQVQLVESGGGVVQPGRSLRLSCAASGFTLSSYGMHWVRQAPGKGLEWVAVISYDGSNKYYVDSVKGRFTISRDNSKNTLYLQMNSLRAEDTAVYYCRWAYWELLPDYYYGMDVWGQGTTVTVSSGGSSGEVQLVESGGALIQPGGSLRLSCAASGIIVSANYMSWVRQAPGKGLEWVSVIYSGGSTFYADSVKGRFTISRDNSKNTLYLEMNSLRAEDTAVYYCARDAPILGVSDWGQGTLVTVSSASGGSGDKTHTCPPCPAPELLGGPSVFLFPPKPKDTLMISRTPEVTCVVVDVSHEDPEVKFNWYVDGVEVHNAKTKPREEQYNSYVVSVLTVLHQDWLNGKEYKCKVSNKALPAPIEKTISKAKGQPREPQVYTLPPCRDELTKNQVSLWCLVKGFYPSDIAVEWESNGQPENNYKTTPPVLDSDGSFFKKLTVDKSRWQQGNVFSCSVLHEALHSHYTQKSLSLSPG
chain 2: QTVVTQEPSFSVSPGGTVTLTCGLSSGSVSTAYFPSWYQQTPGQAPRTLIYGTNTRSSGVPDRFSGSILGNKAALTITGAQADDESDYYCVLYMGRGIVVFGGGTKLTVLGGSSGEIVMTQSPAILSVSPGERATLSCRASQSVAINLAWYQQKPGQAPRLLIYAASSRATGIPGRFSGSGSETNFTLTISSLQSGDFAVYYCQQYITWPPSYTFGQGTKLEIKGGGGSGGSGSGGGGSASGSGEVQLVESGGALIQPGGSLRLSCAASGIIVSANYMSWVRQAPGKGLEWVSVIYSGGSTFYADSVKGRFTISRDNSKNTLYLEMNSLRAEDTAVYYCARDAPILGVSDWGQGTLVTVSSGGSSGQVQLVESGGGVVQPGRSLRLSCAASGFTLSSYGMHWVRQAPGKGLEWVAVISYDGSNKYYVDSVKGRFTISRDNSKNTLYLQMNSLRAEDTAVYYCRWAYWELLPDYYYGMDVWGQGTTVTVSSASGGSGDKTHTCPPCPAPELLGGPSVFLFPPKPKDTLMISRTPEVTCVVVDVSHEDPEVKFNWYVDGVEVHNAKTKPREEQYNSYVVSVLTVLHQDWLNGKEYKCKVSNKALPAPIEKTISKAKGQPREPQVCTLPPSRDELTKNQVSLSCAVKGFYPSDIAVEWESNGQPENNYKTTPPVLDSDGSFFLVSKLTVDKSRWQQGNVFSCSVLHEALHSHYTQKSLSLSPG
Consider B5, for which the IC50, pseudovirus neutralization in test [1] came to 0.0135 µg/mL; in test [2], 0.0216 µg/mL; in test [4], 0.0129 µg/mL. Besides, the IC80, pseudovirus neutralization was 0.0232 µg/mL in test [1], 0.0649 µg/mL in test [2] and 0.0207 µg/mL in test [4].
